Laboratory results as given in patent US20160053025A1 (SAMSUNG ELECTRONICS, published 2016).

Assays:
[1] = target: T1, Ang2 protein (R&D systems) (human, UniProt O15123 19-496); assay: cell-based or functional assay
T1 sequence: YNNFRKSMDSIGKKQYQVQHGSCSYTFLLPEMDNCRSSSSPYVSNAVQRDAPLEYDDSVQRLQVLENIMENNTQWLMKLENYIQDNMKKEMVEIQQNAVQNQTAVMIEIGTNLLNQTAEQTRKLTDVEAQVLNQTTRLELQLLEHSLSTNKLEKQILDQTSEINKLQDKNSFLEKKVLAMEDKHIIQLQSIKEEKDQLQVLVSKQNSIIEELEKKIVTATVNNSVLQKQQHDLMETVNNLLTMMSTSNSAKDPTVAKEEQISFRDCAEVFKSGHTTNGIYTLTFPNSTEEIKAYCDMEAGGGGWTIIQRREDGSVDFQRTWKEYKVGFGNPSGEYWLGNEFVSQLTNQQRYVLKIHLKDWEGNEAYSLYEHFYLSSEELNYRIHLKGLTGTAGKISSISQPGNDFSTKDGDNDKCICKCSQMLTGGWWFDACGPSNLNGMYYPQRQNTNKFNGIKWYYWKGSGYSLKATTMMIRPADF

[2] = target: Ang2 RBD A449 mutant (with alanine), FLAG-tagged (human) (UniProt O15123); assay: ELISA, antibody coated, FLAG-tagged mutant Ang2 RBD detected with anti-FLAG-HRP
[3] = target: T2, Ang2 RBD N421A, FLAG-tagged (human, UniProt O15123 281-496, limits assumed); assay: as above
T2 chain: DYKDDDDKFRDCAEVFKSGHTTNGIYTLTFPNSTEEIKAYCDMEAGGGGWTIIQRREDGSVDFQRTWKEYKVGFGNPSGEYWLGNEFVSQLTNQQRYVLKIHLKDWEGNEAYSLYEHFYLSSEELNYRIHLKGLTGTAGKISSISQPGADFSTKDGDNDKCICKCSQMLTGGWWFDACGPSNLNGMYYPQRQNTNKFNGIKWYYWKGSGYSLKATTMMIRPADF
Procedure: (§1) To verify the epitope (or specific binding site) of the anti-Ang2 antibody prepared in Reference Example 2.3, an ELISA was performed using a recombinant protein where a receptor binding domain (RBD) of Ang2 protein in the form of being tagged with Flag was mutated by artificial means.
(§2) Each well of a 96-well MaxiSorp™ flat-bottom plate (Nunc) was coated with 50 ul (microliter) of 1000 nM antibody. Then, the plate was washed five times with 0.05% (v/v) Tween-20-containing PBS (PBST) and blocked with 1% (v/v) BSA-containing PBS at a room temperature for 2 hours. 250 ng of each mutant Ang2 protein obtained by substituting S417, Q418, P419, N421, 1434, D448, A449, P452, Y460, N467, K468, or F469 residue of Ang2 protein tagged with a FLAG sequence ([…], Sigma) at its N-terminal with alanine was added to each well of the plate, which was then allowed to react at a room temperature for 2 hours.
(§3) Finally, 50 ul of TMB substrates (Cell signaling) was added to each well of the plate to induce color development at a room temperature for 3 min. and the reaction was ceased by the addition of 50 ul of Stop solution (Cell signaling) and then, OD450 values were measured on a plate reader (Molecular Devices). By comparing binding affinities with mutated Ang2 to those of unmutated Ang2, each epitope of Ang2 antibodies was identified. The obtained measurement results of the binding affinities (%) with mutant Ang2 against the binding affinity with the native Ang2 are shown in the following Table 13.

[4] = target: T3, Ang2 RBD I434A, FLAG-tagged (human, UniProt O15123 281-496, limits assumed); assay: as above
T3 construct: Printed as '1434', read as I434
T3 chain: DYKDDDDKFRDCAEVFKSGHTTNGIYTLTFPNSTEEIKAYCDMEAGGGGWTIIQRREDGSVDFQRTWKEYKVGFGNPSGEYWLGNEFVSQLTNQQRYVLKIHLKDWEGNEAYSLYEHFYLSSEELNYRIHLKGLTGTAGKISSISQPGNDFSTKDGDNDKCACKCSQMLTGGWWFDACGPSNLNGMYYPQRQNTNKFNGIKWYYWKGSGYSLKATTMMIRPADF
Procedure: as §1, §2, §3

[5] = target: T4, Ang2 RBD N467A, FLAG-tagged (human, UniProt O15123 281-496, limits assumed); assay: as above
T4 chain: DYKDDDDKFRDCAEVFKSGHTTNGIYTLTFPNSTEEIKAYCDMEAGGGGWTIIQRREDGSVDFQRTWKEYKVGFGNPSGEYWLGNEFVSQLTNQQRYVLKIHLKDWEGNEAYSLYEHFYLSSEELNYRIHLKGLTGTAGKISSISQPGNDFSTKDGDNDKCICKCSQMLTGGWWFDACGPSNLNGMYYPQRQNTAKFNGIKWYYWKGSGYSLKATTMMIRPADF
Procedure: as §1, §2, §3

[6] = target: T5, hTie2-Fc (R&D Systems) (human, UniProt Q02763 23-745); assay: Complex ELISA: plate coated with Tie2-Fc (4 ug/ml), 10D6 2 ug/ml without Ang2, anti-mouse IgG-HRP, OD450
T5 construct: Bought fusion protein; also called hTie-2/Fc fusion protein; not shown: Fc of human IgG1
T5 sequence (Q02763 23-745 limits assumed): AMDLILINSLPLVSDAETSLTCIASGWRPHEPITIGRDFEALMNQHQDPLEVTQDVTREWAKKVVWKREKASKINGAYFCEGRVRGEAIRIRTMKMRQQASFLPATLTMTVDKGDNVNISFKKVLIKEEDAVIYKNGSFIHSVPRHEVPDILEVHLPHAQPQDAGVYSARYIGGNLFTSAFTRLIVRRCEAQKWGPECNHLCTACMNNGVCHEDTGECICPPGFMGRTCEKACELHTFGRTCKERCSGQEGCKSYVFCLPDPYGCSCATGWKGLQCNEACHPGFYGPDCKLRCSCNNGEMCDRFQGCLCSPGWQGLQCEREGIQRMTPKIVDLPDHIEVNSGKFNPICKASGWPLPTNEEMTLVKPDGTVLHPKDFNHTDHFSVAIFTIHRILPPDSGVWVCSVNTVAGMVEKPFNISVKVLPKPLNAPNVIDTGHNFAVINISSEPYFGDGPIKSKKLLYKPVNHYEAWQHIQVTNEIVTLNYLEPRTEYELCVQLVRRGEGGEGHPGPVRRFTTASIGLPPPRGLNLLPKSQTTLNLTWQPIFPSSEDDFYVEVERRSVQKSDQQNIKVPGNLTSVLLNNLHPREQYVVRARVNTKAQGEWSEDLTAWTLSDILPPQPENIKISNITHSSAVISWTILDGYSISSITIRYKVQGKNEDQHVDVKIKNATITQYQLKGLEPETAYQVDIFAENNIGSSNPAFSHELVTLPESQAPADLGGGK
Procedure: A 96-well MaxiSorp™ flat-bottom plate (Nunc) was coated with 4 μg/ml of Tie2-Fc (R&D systems) or BSA (Sigma). Then, the plate was washed five times with 0.05% (v/v) Tween-20-containing PBS (Phosphate Buffer Saline) and blocked with 1% (v/v) BSA (Bovine serum albumin; Sigma)-containing PBS at a room temperature for 2 hours. […] After that, an anti-mouse IgG antibody (Sigma) conjugated with HRP diluted in 1% (v/v) BSA-containing PBS at a ratio of 1:5,000 (v/v) was added in an amount of 100 ul to each well to react at a room temperature for 1 hour and then, the plate was washed five times with PBST. Lastly, 100 ul (microliter) of TMB substrate (Cell Signaling) was added to each well of the plate to induce color development for 3 min. and then, the reaction was ceased by the addition of 100 ul of Stop solution (Cell Signaling) and OD450 values were measured on a plate reader (Molecular Devices).

Tie2 phosphorylation effect against control antibody RG [1]: ~8.6 fold
Tie2 phosphorylation level (pTyr/Tie2 ratio, HUVEC, 60 nM antibody) [1]: 180%
binding affinity (%) with mutant Ang2 against the binding affinity with the native Ang2 [2]: 97.9%
binding affinity (%) with mutant Ang2 against the binding affinity with the native Ang2 [3]: 109%
binding affinity (%) with mutant Ang2 against the binding affinity with the native Ang2 [4]: 109%
binding affinity (%) with mutant Ang2 against the binding affinity with the native Ang2 [5]: 107%
binding result [6]: no binding (tested: 2 ug/ml)
B1: SAIT-ANG2-AB-m10D6 (antibody, V domains shown)
VH: DVQLQESGPDLVKPSQSLSLTCTVTGYSITSDYAWNWIRQFPGNKLEWMGYINYSGNTDYNPSLKSRSSITRDTSKNQFFLQLNSVTTGDTATYYCARGNFEGAMDYWGQGTSVTVSS
VL: SIVMTQTPKFLLVSAGDRVTITCKASQSVSNDVAWYQQKPGQSPKLLIYYASNRYPGVPDRFTGSGYGTDFTFTISTVQAEDLAVYFCQQDYSSPWTFGGGTKLEIK
notes: Mouse monoclonal antibody purified from a hybridoma (KCLRF-BP-00295); it is not applied here; also called mouse antibody 10D6; 10D6 antibody
